Assay results taken from patent US20030143237A1 (University of California, published 2003).

B1: hAFP137-145, residues 137-145 of SEQ ID NO:2 (peptide)
peptide: PLFQVPEPV
notes: One of the four 'dominant' AFP peptides; synthesized by standard techniques
B2: hAFP158-166, residues 158-166 of SEQ ID NO:2 (peptide)
peptide: FMNKFIYEI
notes: as for B1
B3: hAFP325-334, residues 325-334 of SEQ ID NO:2 (peptide)
peptide: GLSPNLNRFL
notes: as for B1
B4: hAFP542-550, residues 542-550 of SEQ ID NO:2 (peptide)
peptide: GVALQTMKQ
notes: as for B1

Molecular target: T1, HLA-A*0201 (human)
T1 construct: MHC class I molecule on cells; detected by flow cytometry with anti-HLA-A2 antibody BB7.2; also called HLA-A2; A2.1
Assay: off-kinetics assay on acid-stripped HLA-A*0201 LCL pulsed with peptide and b2 microglobulin, flow cytometry of surface HLA-A2 (stable if MFI at least 1.5-fold over unpulsed cells)
Experimental: Next, MHC-peptide complex stability was determined using an off-kinetics assay. […] Each peptide was immediately pulsed onto cells at […] for 1 hour in the presence of b2 microglobulin at 3 ug/ml at room temperature. Excess peptide was washed off and the cells were incubated at 37° C. for 0, 2, 4 and 6 hours. Cells were washed at the end of each time point and stained for cell surface HLA-A2 expression, then analyzed by flow cytometry.

Relative Off kinetics [h]	Binder
4	B1
4	B2
2	B3
6	B4
